IntAct's records for PubMed 12646039

B1: E3 ubiquitin-protein ligase RHA2A (Arabidopsis thaliana (Mouse-ear cress)), Q9ZT50 (parent)
chain: MGLQGQLSDVSSDSIPLMLLSLLAVFINHLRSFLLRLTSKSNPNLPVDDVSIASGLANIIVLADQLSLNRLFSYRCGDGGGGGSDCVVCLSKLKEGEEVRKLECRHVFHKKCLEGWLHQFNFTCPLCRSALVSDDCVSKTQRSVGRDLISCFSLH
partner: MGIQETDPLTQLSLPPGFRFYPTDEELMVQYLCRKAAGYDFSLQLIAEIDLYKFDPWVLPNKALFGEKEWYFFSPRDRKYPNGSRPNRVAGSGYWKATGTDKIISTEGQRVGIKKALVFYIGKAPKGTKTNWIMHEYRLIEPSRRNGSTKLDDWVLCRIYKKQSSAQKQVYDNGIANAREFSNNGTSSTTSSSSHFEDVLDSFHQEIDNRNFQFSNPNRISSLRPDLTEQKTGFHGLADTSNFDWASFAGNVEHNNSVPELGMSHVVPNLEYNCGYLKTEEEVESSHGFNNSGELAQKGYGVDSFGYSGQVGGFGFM

Variants of: B1
Conditions: with nac19_arath NAC019, Q9C932

Variant	effect of a mutation on the interaction
C89S	decreasing interaction
E103P	decreasing interaction
